According to patent publication US20080008712:

Columns and labels:
[1] = target: T1, CDC25B3 recombinant protein
T1 chain: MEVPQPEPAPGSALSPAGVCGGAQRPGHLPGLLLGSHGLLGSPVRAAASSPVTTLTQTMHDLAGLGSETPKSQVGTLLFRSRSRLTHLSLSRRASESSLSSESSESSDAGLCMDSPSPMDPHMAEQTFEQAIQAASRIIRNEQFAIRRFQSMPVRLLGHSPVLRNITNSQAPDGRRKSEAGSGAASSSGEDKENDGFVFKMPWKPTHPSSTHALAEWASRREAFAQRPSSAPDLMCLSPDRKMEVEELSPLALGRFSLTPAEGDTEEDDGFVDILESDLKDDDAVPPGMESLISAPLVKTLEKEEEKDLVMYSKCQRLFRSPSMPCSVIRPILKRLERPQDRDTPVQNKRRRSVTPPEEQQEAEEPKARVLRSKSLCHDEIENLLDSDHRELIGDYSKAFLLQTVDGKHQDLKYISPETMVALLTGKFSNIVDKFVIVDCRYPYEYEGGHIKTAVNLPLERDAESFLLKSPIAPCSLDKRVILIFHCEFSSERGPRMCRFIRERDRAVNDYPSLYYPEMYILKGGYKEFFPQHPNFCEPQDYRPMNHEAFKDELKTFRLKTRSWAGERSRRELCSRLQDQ

[2] = target: T2, CDC25B2
T2 chain: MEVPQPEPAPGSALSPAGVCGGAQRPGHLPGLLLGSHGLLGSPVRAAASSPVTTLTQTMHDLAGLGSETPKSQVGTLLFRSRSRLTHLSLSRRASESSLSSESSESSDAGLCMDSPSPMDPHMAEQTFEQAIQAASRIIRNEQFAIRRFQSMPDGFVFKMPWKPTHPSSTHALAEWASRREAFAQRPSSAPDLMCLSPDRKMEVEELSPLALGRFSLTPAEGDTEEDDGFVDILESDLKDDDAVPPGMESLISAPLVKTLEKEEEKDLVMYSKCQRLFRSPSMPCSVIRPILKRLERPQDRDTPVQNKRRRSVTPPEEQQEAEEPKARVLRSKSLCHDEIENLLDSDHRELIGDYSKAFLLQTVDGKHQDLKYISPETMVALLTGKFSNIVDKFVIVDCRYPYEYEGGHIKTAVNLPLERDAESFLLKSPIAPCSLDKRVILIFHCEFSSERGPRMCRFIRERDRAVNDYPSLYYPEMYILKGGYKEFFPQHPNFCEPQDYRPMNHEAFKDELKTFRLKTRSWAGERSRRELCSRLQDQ

[3] = target: T3, CDC25B5
T3 chain: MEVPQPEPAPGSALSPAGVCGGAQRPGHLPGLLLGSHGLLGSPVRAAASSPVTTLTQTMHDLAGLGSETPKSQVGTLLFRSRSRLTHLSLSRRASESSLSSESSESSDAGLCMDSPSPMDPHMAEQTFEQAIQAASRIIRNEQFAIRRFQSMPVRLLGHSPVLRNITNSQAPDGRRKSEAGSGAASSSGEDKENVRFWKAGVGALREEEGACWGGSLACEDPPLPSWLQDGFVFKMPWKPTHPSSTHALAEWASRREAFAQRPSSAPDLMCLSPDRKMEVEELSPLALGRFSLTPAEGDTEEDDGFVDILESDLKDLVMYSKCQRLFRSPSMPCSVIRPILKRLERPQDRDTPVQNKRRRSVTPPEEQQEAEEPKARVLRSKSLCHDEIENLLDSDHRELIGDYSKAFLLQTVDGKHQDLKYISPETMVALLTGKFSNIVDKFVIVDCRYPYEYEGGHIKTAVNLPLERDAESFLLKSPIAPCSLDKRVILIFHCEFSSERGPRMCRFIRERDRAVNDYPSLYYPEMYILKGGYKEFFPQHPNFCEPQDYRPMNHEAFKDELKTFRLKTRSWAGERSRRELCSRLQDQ

[4] = target: T4, CDC25B4
T4 chain: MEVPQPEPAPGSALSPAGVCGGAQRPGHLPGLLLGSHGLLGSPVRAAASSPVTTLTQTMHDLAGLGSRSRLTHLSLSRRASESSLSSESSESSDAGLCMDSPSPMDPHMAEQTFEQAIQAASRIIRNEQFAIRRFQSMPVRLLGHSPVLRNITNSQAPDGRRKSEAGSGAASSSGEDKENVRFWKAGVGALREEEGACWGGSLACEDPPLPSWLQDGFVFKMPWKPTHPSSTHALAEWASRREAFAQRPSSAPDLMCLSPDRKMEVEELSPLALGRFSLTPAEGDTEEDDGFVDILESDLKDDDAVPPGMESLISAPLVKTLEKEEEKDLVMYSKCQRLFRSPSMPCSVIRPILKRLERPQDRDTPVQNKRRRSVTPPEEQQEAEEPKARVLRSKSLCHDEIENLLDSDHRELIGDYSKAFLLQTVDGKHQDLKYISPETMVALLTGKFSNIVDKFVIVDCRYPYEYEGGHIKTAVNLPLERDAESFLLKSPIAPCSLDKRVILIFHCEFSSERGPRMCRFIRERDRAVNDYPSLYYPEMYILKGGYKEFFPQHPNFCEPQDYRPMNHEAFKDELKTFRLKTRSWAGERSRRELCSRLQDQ

[5] = target: T5, CDC25B1
T5 chain: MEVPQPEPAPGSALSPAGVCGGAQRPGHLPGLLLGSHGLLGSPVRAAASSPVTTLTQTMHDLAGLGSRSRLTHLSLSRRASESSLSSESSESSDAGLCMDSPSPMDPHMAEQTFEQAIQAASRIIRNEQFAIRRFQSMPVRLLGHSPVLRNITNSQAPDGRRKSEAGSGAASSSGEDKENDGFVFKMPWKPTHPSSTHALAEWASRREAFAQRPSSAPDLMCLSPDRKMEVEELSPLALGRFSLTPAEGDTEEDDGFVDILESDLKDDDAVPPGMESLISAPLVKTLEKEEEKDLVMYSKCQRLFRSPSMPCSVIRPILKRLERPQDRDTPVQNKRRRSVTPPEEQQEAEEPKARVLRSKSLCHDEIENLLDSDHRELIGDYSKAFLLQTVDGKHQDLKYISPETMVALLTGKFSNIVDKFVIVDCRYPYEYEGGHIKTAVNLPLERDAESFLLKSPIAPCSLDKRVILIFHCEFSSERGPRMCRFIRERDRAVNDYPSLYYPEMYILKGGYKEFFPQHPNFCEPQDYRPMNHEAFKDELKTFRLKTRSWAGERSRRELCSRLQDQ

B1: recombinant Aurora A kinase (protein)
chain: MDRSKENCISGPVKATAPVGGPKRVLVTQQFPCQNPLPVNSGQAQRVLCPSNSSQRIPLQAQKLVSSHKPVQNQKQKQLQATSVPHPVSRPLNNTQKSKQPLPSAPENNPEEELASKQKNEESKKRQWALEDFEIGRPLGKGKFGNVYLAREKQSKFILALKVLFKAQLEKAGVEHQLRREVEIQSHLRHPNILRLYGYFHDATRVYLILEYAPLGTVYRELQKLSKFDEQRTATYITELANALSYCHSKRVIHRDIKPENLLLGSAGELKIADFGWSVHAPSSRRTTLCGTLDYLPPEMIEGRMHDEKVDLWSLGVLCYEFLVGKPPFEANTYQETYKRISRVEFTFPDFVTEGARDLISRLLKHNPSQRPMLREVLEHPWITANSSKPSNCQNKESASKQS
With B1 as the protein, how does the “in vitro phosphorylation, MS/MS of the tryptic peptide 353-SVTPPEEQQEAEEPK-367” value [1] read?
Its value is “it is the serine 353 which is phosphorylated by the kinase”.

And the in vitro phosphorylation [2]?
The in vitro phosphorylation was “CDC25B2 on the serine 312”.

What about the in vitro phosphorylation [3] of the same protein?
Its in vitro phosphorylation is “CDC25B5 on the serine 361”.

What about the in vitro phosphorylation [4] of the same protein?
Its in vitro phosphorylation is “CDC25B4 on the serine 374”.

And the in vitro phosphorylation [5]?
The in vitro phosphorylation was “the recombinant Aurora A kinase phosphorylates CDC25B1 on the serine 339”.
